Source: publication PMC8748919, “Dynamics and mechanism of dimer dissociation of photoreceptor UVR8” (Nature Communications, 2022)

B1: UVR8 W250 single-Trp mutant (receptor, Arabidopsis thaliana, UniProt Q9FN03 1-440, looked up)
chain: MAEDMAADEVTAPPRKVLIISAGASHSVALLSGDIVCSWGRGEDGQLGHGDAEDRPSPTQLSALDGHQIVSVTCGADHTVAYSQSGMEVYSWGWGDFGRLGHGNSSDLFTPLPIKALHGIRIKQIACGDSHCLAVTMEGEVQSWGRNQNGQLGLGDTEDSLVPQKIQAFEGIRIKMVAAGAEHTAAVTEDGDLYGWGWGRYGNLGLGDRTDRLVPERVTSTGGEKMSMVACGWRHTISVSYSGALYTYGFSKYGQLGHGDLEDHLIPHKLEALSNSFISQISGGWRHTMALTSDGKLYGWGWNKFGQVGVGNNLDQCSPVQVRFPDDQKVVQVSCGWRHTLAVTERNNVFAWGRGTNGQLGIGESVDRNFPKIIEALSVDGASGQHIESSNIDPSSGKSWVSPAERYAVVPDETGLTDGSSKGNGGDISVPQTDVKRVRI
notes: UVR8, Arabidopsis thaliana; mutant plasmid built on the wild-type plasmid; also called W250F; source: E. coli BL21-DE3, purified (Ni-Sepharose, Source-15Q)
B2: UVR8 W285K/W233D (receptor, Arabidopsis thaliana, UniProt Q9FN03 1-440, looked up)
chain: MAEDMAADEVTAPPRKVLIISAGASHSVALLSGDIVCSWGRGEDGQLGHGDAEDRPSPTQLSALDGHQIVSVTCGADHTVAYSQSGMEVYSWGWGDFGRLGHGNSSDLFTPLPIKALHGIRIKQIACGDSHCLAVTMEGEVQSWGRNQNGQLGLGDTEDSLVPQKIQAFEGIRIKMVAAGAEHTAAVTEDGDLYGWGWGRYGNLGLGDRTDRLVPERVTSTGGEKMSMVACGDRHTISVSYSGALYTYGWSKYGQLGHGDLEDHLIPHKLEALSNSFISQISGGKRHTMALTSDGKLYGWGWNKFGQVGVGNNLDQCSPVQVRFPDDQKVVQVSCGWRHTLAVTERNNVFAWGRGTNGQLGIGESVDRNFPKIIEALSVDGASGQHIESSNIDPSSGKSWVSPAERYAVVPDETGLTDGSSKGNGGDISVPQTDVKRVRI
notes: UVR8, Arabidopsis thaliana; mutant plasmid built on the wild-type plasmid; source: E. coli BL21-DE3, purified (Ni-Sepharose, Source-15Q)
B3: UVR8 D129 mutated to neutral (N) (receptor, Arabidopsis thaliana, UniProt Q9FN03 1-440, looked up)
chain: MAEDMAADEVTAPPRKVLIISAGASHSVALLSGDIVCSWGRGEDGQLGHGDAEDRPSPTQLSALDGHQIVSVTCGADHTVAYSQSGMEVYSWGWGDFGRLGHGNSSDLFTPLPIKALHGIRIKQIACGNSHCLAVTMEGEVQSWGRNQNGQLGLGDTEDSLVPQKIQAFEGIRIKMVAAGAEHTAAVTEDGDLYGWGWGRYGNLGLGDRTDRLVPERVTSTGGEKMSMVACGWRHTISVSYSGALYTYGWSKYGQLGHGDLEDHLIPHKLEALSNSFISQISGGWRHTMALTSDGKLYGWGWNKFGQVGVGNNLDQCSPVQVRFPDDQKVVQVSCGWRHTLAVTERNNVFAWGRGTNGQLGIGESVDRNFPKIIEALSVDGASGQHIESSNIDPSSGKSWVSPAERYAVVPDETGLTDGSSKGNGGDISVPQTDVKRVRI
notes: UVR8, Arabidopsis thaliana; mutant plasmid built on the wild-type plasmid; also called D129N; source: E. coli BL21-DE3, purified (Ni-Sepharose, Source-15Q)
B4: UVR8 W285/233/94/337G (receptor, Arabidopsis thaliana, UniProt Q9FN03 1-440, looked up)
chain: MAEDMAADEVTAPPRKVLIISAGASHSVALLSGDIVCSWGRGEDGQLGHGDAEDRPSPTQLSALDGHQIVSVTCGADHTVAYSQSGMEVYSWGGGDFGRLGHGNSSDLFTPLPIKALHGIRIKQIACGDSHCLAVTMEGEVQSWGRNQNGQLGLGDTEDSLVPQKIQAFEGIRIKMVAAGAEHTAAVTEDGDLYGWGWGRYGNLGLGDRTDRLVPERVTSTGGEKMSMVACGGRHTISVSYSGALYTYGWSKYGQLGHGDLEDHLIPHKLEALSNSFISQISGGGRHTMALTSDGKLYGWGWNKFGQVGVGNNLDQCSPVQVRFPDDQKVVQVSCGGRHTLAVTERNNVFAWGRGTNGQLGIGESVDRNFPKIIEALSVDGASGQHIESSNIDPSSGKSWVSPAERYAVVPDETGLTDGSSKGNGGDISVPQTDVKRVRI
notes: as for B2
B5: UVR8 R338 mutated to lysine (K) (receptor, Arabidopsis thaliana, UniProt Q9FN03 1-440, looked up)
chain: MAEDMAADEVTAPPRKVLIISAGASHSVALLSGDIVCSWGRGEDGQLGHGDAEDRPSPTQLSALDGHQIVSVTCGADHTVAYSQSGMEVYSWGWGDFGRLGHGNSSDLFTPLPIKALHGIRIKQIACGDSHCLAVTMEGEVQSWGRNQNGQLGLGDTEDSLVPQKIQAFEGIRIKMVAAGAEHTAAVTEDGDLYGWGWGRYGNLGLGDRTDRLVPERVTSTGGEKMSMVACGWRHTISVSYSGALYTYGWSKYGQLGHGDLEDHLIPHKLEALSNSFISQISGGWRHTMALTSDGKLYGWGWNKFGQVGVGNNLDQCSPVQVRFPDDQKVVQVSCGWKHTLAVTERNNVFAWGRGTNGQLGIGESVDRNFPKIIEALSVDGASGQHIESSNIDPSSGKSWVSPAERYAVVPDETGLTDGSSKGNGGDISVPQTDVKRVRI
notes: UVR8, Arabidopsis thaliana; mutant plasmid built on the wild-type plasmid; also called R338K; source: E. coli BL21-DE3, purified (Ni-Sepharose, Source-15Q)
B6: UVR8 R234 mutated to neutral (Q) (receptor, Arabidopsis thaliana, UniProt Q9FN03 1-440, looked up)
chain: MAEDMAADEVTAPPRKVLIISAGASHSVALLSGDIVCSWGRGEDGQLGHGDAEDRPSPTQLSALDGHQIVSVTCGADHTVAYSQSGMEVYSWGWGDFGRLGHGNSSDLFTPLPIKALHGIRIKQIACGDSHCLAVTMEGEVQSWGRNQNGQLGLGDTEDSLVPQKIQAFEGIRIKMVAAGAEHTAAVTEDGDLYGWGWGRYGNLGLGDRTDRLVPERVTSTGGEKMSMVACGWQHTISVSYSGALYTYGWSKYGQLGHGDLEDHLIPHKLEALSNSFISQISGGWRHTMALTSDGKLYGWGWNKFGQVGVGNNLDQCSPVQVRFPDDQKVVQVSCGWRHTLAVTERNNVFAWGRGTNGQLGIGESVDRNFPKIIEALSVDGASGQHIESSNIDPSSGKSWVSPAERYAVVPDETGLTDGSSKGNGGDISVPQTDVKRVRI
notes: UVR8, Arabidopsis thaliana; mutant plasmid built on the wild-type plasmid; also called R234Q; source: E. coli BL21-DE3, purified (Ni-Sepharose, Source-15Q)
B7: UVR8 R286 mutated to lysine (K) (receptor, Arabidopsis thaliana, UniProt Q9FN03 1-440, looked up)
chain: MAEDMAADEVTAPPRKVLIISAGASHSVALLSGDIVCSWGRGEDGQLGHGDAEDRPSPTQLSALDGHQIVSVTCGADHTVAYSQSGMEVYSWGWGDFGRLGHGNSSDLFTPLPIKALHGIRIKQIACGDSHCLAVTMEGEVQSWGRNQNGQLGLGDTEDSLVPQKIQAFEGIRIKMVAAGAEHTAAVTEDGDLYGWGWGRYGNLGLGDRTDRLVPERVTSTGGEKMSMVACGWRHTISVSYSGALYTYGWSKYGQLGHGDLEDHLIPHKLEALSNSFISQISGGWKHTMALTSDGKLYGWGWNKFGQVGVGNNLDQCSPVQVRFPDDQKVVQVSCGWRHTLAVTERNNVFAWGRGTNGQLGIGESVDRNFPKIIEALSVDGASGQHIESSNIDPSSGKSWVSPAERYAVVPDETGLTDGSSKGNGGDISVPQTDVKRVRI
notes: UVR8, Arabidopsis thaliana; mutant plasmid built on the wild-type plasmid; also called R286K; source: E. coli BL21-DE3, purified (Ni-Sepharose, Source-15Q)
B8: UVR8 W285D/W233K (receptor, Arabidopsis thaliana, UniProt Q9FN03 1-440, looked up)
chain: MAEDMAADEVTAPPRKVLIISAGASHSVALLSGDIVCSWGRGEDGQLGHGDAEDRPSPTQLSALDGHQIVSVTCGADHTVAYSQSGMEVYSWGWGDFGRLGHGNSSDLFTPLPIKALHGIRIKQIACGDSHCLAVTMEGEVQSWGRNQNGQLGLGDTEDSLVPQKIQAFEGIRIKMVAAGAEHTAAVTEDGDLYGWGWGRYGNLGLGDRTDRLVPERVTSTGGEKMSMVACGKRHTISVSYSGALYTYGWSKYGQLGHGDLEDHLIPHKLEALSNSFISQISGGDRHTMALTSDGKLYGWGWNKFGQVGVGNNLDQCSPVQVRFPDDQKVVQVSCGWRHTLAVTERNNVFAWGRGTNGQLGIGESVDRNFPKIIEALSVDGASGQHIESSNIDPSSGKSWVSPAERYAVVPDETGLTDGSSKGNGGDISVPQTDVKRVRI
notes: as for B2
B9: UVR8 W92 single-Trp mutant (receptor, Arabidopsis thaliana, UniProt Q9FN03 1-440, looked up)
chain: MAEDMAADEVTAPPRKVLIISAGASHSVALLSGDIVCSWGRGEDGQLGHGDAEDRPSPTQLSALDGHQIVSVTCGADHTVAYSQSGMEVYSFGWGDFGRLGHGNSSDLFTPLPIKALHGIRIKQIACGDSHCLAVTMEGEVQSWGRNQNGQLGLGDTEDSLVPQKIQAFEGIRIKMVAAGAEHTAAVTEDGDLYGWGWGRYGNLGLGDRTDRLVPERVTSTGGEKMSMVACGWRHTISVSYSGALYTYGWSKYGQLGHGDLEDHLIPHKLEALSNSFISQISGGWRHTMALTSDGKLYGWGWNKFGQVGVGNNLDQCSPVQVRFPDDQKVVQVSCGWRHTLAVTERNNVFAWGRGTNGQLGIGESVDRNFPKIIEALSVDGASGQHIESSNIDPSSGKSWVSPAERYAVVPDETGLTDGSSKGNGGDISVPQTDVKRVRI
notes: UVR8, Arabidopsis thaliana; mutant plasmid built on the wild-type plasmid; also called W92F; source: E. coli BL21-DE3, purified (Ni-Sepharose, Source-15Q)
B10: UVR8 D129 mutated to positive (K) (receptor, Arabidopsis thaliana, UniProt Q9FN03 1-440, looked up)
chain: MAEDMAADEVTAPPRKVLIISAGASHSVALLSGDIVCSWGRGEDGQLGHGDAEDRPSPTQLSALDGHQIVSVTCGADHTVAYSQSGMEVYSWGWGDFGRLGHGNSSDLFTPLPIKALHGIRIKQIACGKSHCLAVTMEGEVQSWGRNQNGQLGLGDTEDSLVPQKIQAFEGIRIKMVAAGAEHTAAVTEDGDLYGWGWGRYGNLGLGDRTDRLVPERVTSTGGEKMSMVACGWRHTISVSYSGALYTYGWSKYGQLGHGDLEDHLIPHKLEALSNSFISQISGGWRHTMALTSDGKLYGWGWNKFGQVGVGNNLDQCSPVQVRFPDDQKVVQVSCGWRHTLAVTERNNVFAWGRGTNGQLGIGESVDRNFPKIIEALSVDGASGQHIESSNIDPSSGKSWVSPAERYAVVPDETGLTDGSSKGNGGDISVPQTDVKRVRI
notes: UVR8, Arabidopsis thaliana; mutant plasmid built on the wild-type plasmid; also called D129K; source: E. coli BL21-DE3, purified (Ni-Sepharose, Source-15Q)
B11: UVR8 W94/337F (receptor, Arabidopsis thaliana, UniProt Q9FN03 1-440, looked up)
chain: MAEDMAADEVTAPPRKVLIISAGASHSVALLSGDIVCSWGRGEDGQLGHGDAEDRPSPTQLSALDGHQIVSVTCGADHTVAYSQSGMEVYSWGFGDFGRLGHGNSSDLFTPLPIKALHGIRIKQIACGDSHCLAVTMEGEVQSWGRNQNGQLGLGDTEDSLVPQKIQAFEGIRIKMVAAGAEHTAAVTEDGDLYGWGWGRYGNLGLGDRTDRLVPERVTSTGGEKMSMVACGWRHTISVSYSGALYTYGWSKYGQLGHGDLEDHLIPHKLEALSNSFISQISGGWRHTMALTSDGKLYGWGWNKFGQVGVGNNLDQCSPVQVRFPDDQKVVQVSCGFRHTLAVTERNNVFAWGRGTNGQLGIGESVDRNFPKIIEALSVDGASGQHIESSNIDPSSGKSWVSPAERYAVVPDETGLTDGSSKGNGGDISVPQTDVKRVRI
notes: as for B2
B12: UVR8 W302 single-Trp mutant (receptor, Arabidopsis thaliana, UniProt Q9FN03 1-440, looked up)
chain: MAEDMAADEVTAPPRKVLIISAGASHSVALLSGDIVCSWGRGEDGQLGHGDAEDRPSPTQLSALDGHQIVSVTCGADHTVAYSQSGMEVYSWGWGDFGRLGHGNSSDLFTPLPIKALHGIRIKQIACGDSHCLAVTMEGEVQSWGRNQNGQLGLGDTEDSLVPQKIQAFEGIRIKMVAAGAEHTAAVTEDGDLYGWGWGRYGNLGLGDRTDRLVPERVTSTGGEKMSMVACGWRHTISVSYSGALYTYGWSKYGQLGHGDLEDHLIPHKLEALSNSFISQISGGWRHTMALTSDGKLYGWGFNKFGQVGVGNNLDQCSPVQVRFPDDQKVVQVSCGWRHTLAVTERNNVFAWGRGTNGQLGIGESVDRNFPKIIEALSVDGASGQHIESSNIDPSSGKSWVSPAERYAVVPDETGLTDGSSKGNGGDISVPQTDVKRVRI
notes: UVR8, Arabidopsis thaliana; mutant plasmid built on the wild-type plasmid; also called W302F; source: E. coli BL21-DE3, purified (Ni-Sepharose, Source-15Q)
B13: UVR8 W39 single-Trp mutant (receptor, Arabidopsis thaliana, UniProt Q9FN03 1-440, looked up)
chain: MAEDMAADEVTAPPRKVLIISAGASHSVALLSGDIVCSFGRGEDGQLGHGDAEDRPSPTQLSALDGHQIVSVTCGADHTVAYSQSGMEVYSWGWGDFGRLGHGNSSDLFTPLPIKALHGIRIKQIACGDSHCLAVTMEGEVQSWGRNQNGQLGLGDTEDSLVPQKIQAFEGIRIKMVAAGAEHTAAVTEDGDLYGWGWGRYGNLGLGDRTDRLVPERVTSTGGEKMSMVACGWRHTISVSYSGALYTYGWSKYGQLGHGDLEDHLIPHKLEALSNSFISQISGGWRHTMALTSDGKLYGWGWNKFGQVGVGNNLDQCSPVQVRFPDDQKVVQVSCGWRHTLAVTERNNVFAWGRGTNGQLGIGESVDRNFPKIIEALSVDGASGQHIESSNIDPSSGKSWVSPAERYAVVPDETGLTDGSSKGNGGDISVPQTDVKRVRI
notes: UVR8, Arabidopsis thaliana; mutant plasmid built on the wild-type plasmid; also called W39F; source: E. coli BL21-DE3, purified (Ni-Sepharose, Source-15Q)

Molecular target: the molecule itself
Assay: SEC; dimer/monomer state of the purified protein before UV irradiation; 150 mM NaCl, 25 mM Tris-HCl, pH 8.0

Binding result, binds:
B1
B2
B3
B4
B5
B6
B7
B8
B9
B10
B11
B12
B13
